Reference: US20250041437A1 (SUN PHARMA ADVANCED RESEARCH, published 2025)

T1: recombinant human MUC1-SEA (MUC1 antigen, Acrobiosystems, Cat: MU1-H52H9) (human, UniProt P15941 1039-1158)
T1 construct: Bought protein, captured on an anti-His chip (so His-tagged)
T1 sequence: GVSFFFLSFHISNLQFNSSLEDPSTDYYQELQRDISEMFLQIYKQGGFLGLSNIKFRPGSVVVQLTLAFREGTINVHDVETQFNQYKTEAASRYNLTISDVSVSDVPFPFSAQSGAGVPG


Assays:
[1] = target: T1, recombinant human MUC1-SEA (MUC1 …); test: SPR; MUC1 antigen captured on anti-His CM5 chip, antibody as analyte
[2] = target: T1, recombinant human MUC1-SEA (MUC1 …); test: SPR, single cycle kinetics; MUC1 antigen captured on anti-His CM5 chip

| Binder | Kd [1] | koff [1] | kon [1] | Kd [2] | koff [2] | kon [2] |
| --- | --- | --- | --- | --- | --- | --- |
| HM2 LM2 variant of humanized anti-MUC1 antibody SP66 (antibody, V domains shown, Humanized IgG expressed in CHO cells; only variable domains tied to the variant) VH: EIQLVQSGAEVKKPGSSVKVSCKVTGHSITRGSSWHWMRQAPGQGLEWIGYIHYGGGTSYNPSLKSRITITRDTSTNTAYMELSSLRSEDTAFYFCARYSYDITYRWFFDVWGQGTLVTVSS VL: DIQMTQSPSTLSASVGDRVTITCRASQNIGTSIHWYQQKPGKAPKLLIKRASESISGVPSRFSGSGSGTEFTLTISSLQPDDFATYYCQQNNNWPLTFGQGTKVEVK | 0.144 nM | 0.000255 s⁻¹ | 1.77e+06 M⁻¹ s⁻¹ |  |  |  |
| humanized IgG1 anti-MUC1-SEA mAb (HM5 LM4) (antibody, V domains shown, also called Humanized anti-MUC1 SEA IgG1; humanized IgG anti-MUC1-SEA mAb) VH: EIQLVQSGAEVKKPGSSVKVSCKVTGHSITRGSSWHWMRQAPGQGLEWIGYIHYGGGTSYNPSLKSRITITRDTSTNTFYMELSSLRSEDTAFYFCARYSYDITYRWFFDVWGQGTLVTVSS VL: DIQMTQSPSTLSASVGDRVTITCRASQNIGTSIHWYQQKPGKAPKLLIKYASESISGVPSRFSGSGSGTEFTLTISSLQPDDFATYYCQQNNNWPLTFGQGTKVEIKR | 0.0298 nM | 0.00015 s⁻¹ | 5.02e+06 M⁻¹ s⁻¹ | 0.0397 nM | 0.000281 s⁻¹ | 7.07e+06 M⁻¹ s⁻¹ |
| HM5 LM2 variant of humanized anti-MUC1 antibody SP66 (antibody, V domains shown, Humanized IgG expressed in CHO cells; only variable domains tied to the variant) VH: EIQLVQSGAEVKKPGSSVKVSCKVTGHSITRGSSWHWMRQAPGQGLEWIGYIHYGGGTSYNPSLKSRITITRDTSTNTFYMELSSLRSEDTAFYFCARYSYDITYRWFFDVWGQGTLVTVSS VL: DIQMTQSPSTLSASVGDRVTITCRASQNIGTSIHWYQQKPGKAPKLLIKRASESISGVPSRFSGSGSGTEFTLTISSLQPDDFATYYCQQNNNWPLTFGQGTKVEVK | 0.0444 nM | 0.000213 s⁻¹ | 4.8e+06 M⁻¹ s⁻¹ |  |  |  |
| HM2 LM3 variant of humanized anti-MUC1 antibody SP66 (antibody, V domains shown, Humanized IgG expressed in CHO cells; only variable domains tied to the variant) VH: EIQLVQSGAEVKKPGSSVKVSCKVTGHSITRGSSWHWMRQAPGQGLEWIGYIHYGGGTSYNPSLKSRITITRDTSTNTAYMELSSLRSEDTAFYFCARYSYDITYRWFFDVWGQGTLVTVSS VL: DIQMTQSPSTLSASVGDRVTITCRASQNIGTSIHWYQQKPGKAPKLLIKYASESISGVPSRFSGSGSGTEFTLTISSLQPDDFATYYCQQNNNWPLTFGQGTKVEVK | 0.0598 nM | 0.000188 s⁻¹ | 3.14e+06 M⁻¹ s⁻¹ |  |  |  |
| HM4 LM2 variant of humanized anti-MUC1 antibody SP66 (antibody, V domains shown, Humanized IgG expressed in CHO cells; only variable domains tied to the variant) VH: EIQLVQSGAEVKKPGSSVKVSCKVTGHSITRGSSWHWMRQAPGQGLEWIGYIHYGGGTSYNPSLKSRATLTRDTSTNTFYMELSSLRSEDTAFYFCARYSYDITYRWFFDVWGQGTLVTVSS VL: DIQMTQSPSTLSASVGDRVTITCRASQNIGTSIHWYQQKPGKAPKLLIKRASESISGVPSRFSGSGSGTEFTLTISSLQPDDFATYYCQQNNNWPLTFGQGTKVEVK | 0.0639 nM | 0.000261 s⁻¹ | 4.08e+06 M⁻¹ s⁻¹ |  |  |  |
| HM3 LM3 variant of humanized anti-MUC1 antibody SP66 (antibody, V domains shown, Humanized IgG expressed in CHO cells; only variable domains tied to the variant) VH: EIQLVQSGAEVKKPGSSVKVSCKVTGHSITRGSSWHWMRQAPGQGLEWIGYIHYGGGTSYNPSLKSRATLTRDTSTNTAYMELSSLRSEDTAFYFCARYSYDITYRWFFDVWGQGTLVTVSS VL: DIQMTQSPSTLSASVGDRVTITCRASQNIGTSIHWYQQKPGKAPKLLIKYASESISGVPSRFSGSGSGTEFTLTISSLQPDDFATYYCQQNNNWPLTFGQGTKVEVK | 0.0775 nM | 0.00347 s⁻¹ | 4.47e+07 M⁻¹ s⁻¹ |  |  |  |
| HM3 LM2 variant of humanized anti-MUC1 antibody SP66 (antibody, V domains shown, Humanized IgG expressed in CHO cells; only variable domains tied to the variant) VH: EIQLVQSGAEVKKPGSSVKVSCKVTGHSITRGSSWHWMRQAPGQGLEWIGYIHYGGGTSYNPSLKSRATLTRDTSTNTAYMELSSLRSEDTAFYFCARYSYDITYRWFFDVWGQGTLVTVSS VL: DIQMTQSPSTLSASVGDRVTITCRASQNIGTSIHWYQQKPGKAPKLLIKRASESISGVPSRFSGSGSGTEFTLTISSLQPDDFATYYCQQNNNWPLTFGQGTKVEVK | 0.186 nM | 0.000492 s⁻¹ | 2.65e+06 M⁻¹ s⁻¹ |  |  |  |
| HM5 LM3 variant of humanized anti-MUC1 antibody SP66 (antibody, V domains shown, Humanized IgG expressed in CHO cells; only variable domains tied to the variant) VH: EIQLVQSGAEVKKPGSSVKVSCKVTGHSITRGSSWHWMRQAPGQGLEWIGYIHYGGGTSYNPSLKSRITITRDTSTNTFYMELSSLRSEDTAFYFCARYSYDITYRWFFDVWGQGTLVTVSS VL: DIQMTQSPSTLSASVGDRVTITCRASQNIGTSIHWYQQKPGKAPKLLIKYASESISGVPSRFSGSGSGTEFTLTISSLQPDDFATYYCQQNNNWPLTFGQGTKVEVK | 0.05 nM | 0.000198 s⁻¹ | 3.97e+06 M⁻¹ s⁻¹ |  |  |  |
| HM4 LM3 variant of humanized anti-MUC1 antibody SP66 (antibody, V domains shown, Humanized IgG expressed in CHO cells; only variable domains tied to the variant) VH: EIQLVQSGAEVKKPGSSVKVSCKVTGHSITRGSSWHWMRQAPGQGLEWIGYIHYGGGTSYNPSLKSRATLTRDTSTNTFYMELSSLRSEDTAFYFCARYSYDITYRWFFDVWGQGTLVTVSS VL: DIQMTQSPSTLSASVGDRVTITCRASQNIGTSIHWYQQKPGKAPKLLIKYASESISGVPSRFSGSGSGTEFTLTISSLQPDDFATYYCQQNNNWPLTFGQGTKVEVK | 0.0826 nM | 0.000238 s⁻¹ | 2.88e+06 M⁻¹ s⁻¹ |  |  |  |
